Source: patent US20100190692A1 (published 2010)
Each block holds one molecule with its values, some of them ahead of it. *1 amine or outer side, *2 acyl side, *3 side chain or, on linkers, in order; H or OH if unused. [ ]: non-standard residue; d: D form. dSer(tBu) = CC(C)(C)OC[C@@H](N[*:1])C(=O)[*:2]; pGlu = O=C1CC[C@@H](C(=O)O)N1; azaGly = NNC(=O)O

Legend:
human GnRH receptor [1] = target: T1, human GnRH receptor (human, UniProt P30968 1-328); assay: cell-based or functional assay
T1 construct: whole, on cells; Endogenous receptor; also called LHRH receptor; human pituitary GnRH receptor
T1 sequence (looked up): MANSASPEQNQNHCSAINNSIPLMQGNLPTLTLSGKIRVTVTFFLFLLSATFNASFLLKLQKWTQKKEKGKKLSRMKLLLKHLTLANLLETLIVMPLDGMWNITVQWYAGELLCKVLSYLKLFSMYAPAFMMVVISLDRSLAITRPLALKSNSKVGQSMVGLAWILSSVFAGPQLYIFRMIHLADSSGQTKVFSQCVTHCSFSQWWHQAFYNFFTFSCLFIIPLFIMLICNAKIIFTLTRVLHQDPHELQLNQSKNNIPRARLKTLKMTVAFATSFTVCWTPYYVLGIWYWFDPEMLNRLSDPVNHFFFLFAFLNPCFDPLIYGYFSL

human GnRH receptor [2] = target: T1, human GnRH receptor; assay: radioligand displacement curves on ME15392 melanoma cell membranes
human GnRH receptor [3] = target: T1, human GnRH receptor; assay: radioligand displacement curves on BLM melanoma cell membranes
[4] = target: T2, rat pituitary GnRH receptor (rat, UniProt P30969 1-327); assay: radioligand displacement curves on rat pituitary membranes (control)
T2 construct: whole, on cells; also called Rat pituitaries
T2 sequence (looked up): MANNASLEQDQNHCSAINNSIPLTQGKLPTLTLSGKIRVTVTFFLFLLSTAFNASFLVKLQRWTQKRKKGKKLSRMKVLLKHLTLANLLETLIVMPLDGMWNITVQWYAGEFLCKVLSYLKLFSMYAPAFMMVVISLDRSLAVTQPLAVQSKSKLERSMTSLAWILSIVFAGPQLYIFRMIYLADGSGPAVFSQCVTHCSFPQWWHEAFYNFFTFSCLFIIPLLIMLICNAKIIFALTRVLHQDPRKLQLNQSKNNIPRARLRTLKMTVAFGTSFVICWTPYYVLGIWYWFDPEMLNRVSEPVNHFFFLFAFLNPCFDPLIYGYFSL

inhibition of proliferation of MV3 melanoma cells at 10^-4 M (human GnRH receptor [1]): 15% | inhibition of proliferation of MV3 melanoma cells at 10^-5 M (human GnRH receptor [1]): 35% | stimulation of growth of MV3 melanoma cells at 10^-6 M (human GnRH receptor [1]): 40%
Molecule: Antide (LHRH antagonist, Sigma Chemical Co., No. A8802) (peptide)

inhibition of proliferation of MV3 melanoma cells from day 4 on (10^-4, 10^-5, 10^-6 M) (human GnRH receptor [1]): 15%
Molecule: Triptorelin (LHRH agonist, Sigma Chemical Co., No. L9761) (peptide)

decrease of proliferation of U-87MG cells at 10^-6 M (human GnRH receptor [1]): 28% | inhibition of proliferation of U-87MG cells at 10^-5 M (human GnRH receptor [1]): 30%
Molecule: Cetrorelix (GnRH antagonist) (peptide)

Kd (human GnRH receptor [2]): 100 to 600 pM | Kd (human GnRH receptor [3]): 700 to 1100 pM | Kd [4]: 1500 to 2000 pM
Molecule: [pGlu]HWSY[dSer(tBu)]LRP[azaGly]-NH2 (also: ^125I-labelled form used as tracer in binding assay, also called Goserelin) [GnRH agonist LHRH-A (ZOLADEX, [D-Ser(tBu)^6Aza-Gly-LHRH])]
